Source: publication PMC8916728 (2022)

T1: monoFc-tagged NRP2 (human neuropilin 2 a1a2b1b2, residues 23 to 595) (human, UniProt O60462 23-595)
T1 chain: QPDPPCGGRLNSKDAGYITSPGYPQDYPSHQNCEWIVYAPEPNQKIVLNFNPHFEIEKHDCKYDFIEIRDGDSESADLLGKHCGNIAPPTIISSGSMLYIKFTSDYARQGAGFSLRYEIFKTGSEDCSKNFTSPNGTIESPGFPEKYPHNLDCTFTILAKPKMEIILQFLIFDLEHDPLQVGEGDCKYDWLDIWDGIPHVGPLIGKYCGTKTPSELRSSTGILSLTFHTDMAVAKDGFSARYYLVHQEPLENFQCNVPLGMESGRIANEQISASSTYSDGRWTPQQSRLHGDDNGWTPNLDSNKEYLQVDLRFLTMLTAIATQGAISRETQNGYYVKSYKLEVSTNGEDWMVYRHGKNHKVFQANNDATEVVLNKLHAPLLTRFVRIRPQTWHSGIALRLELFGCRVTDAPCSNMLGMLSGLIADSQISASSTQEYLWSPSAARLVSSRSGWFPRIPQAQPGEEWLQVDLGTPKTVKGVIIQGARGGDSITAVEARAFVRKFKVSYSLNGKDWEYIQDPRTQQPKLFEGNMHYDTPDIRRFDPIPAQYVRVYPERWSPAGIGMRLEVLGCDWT

T2: NRP2 a2b1b2 (human neuropilin 2 residues 145 to 595, monomeric IgG1 Fc tag) (human, UniProt O60462 145-595)
T2 chain: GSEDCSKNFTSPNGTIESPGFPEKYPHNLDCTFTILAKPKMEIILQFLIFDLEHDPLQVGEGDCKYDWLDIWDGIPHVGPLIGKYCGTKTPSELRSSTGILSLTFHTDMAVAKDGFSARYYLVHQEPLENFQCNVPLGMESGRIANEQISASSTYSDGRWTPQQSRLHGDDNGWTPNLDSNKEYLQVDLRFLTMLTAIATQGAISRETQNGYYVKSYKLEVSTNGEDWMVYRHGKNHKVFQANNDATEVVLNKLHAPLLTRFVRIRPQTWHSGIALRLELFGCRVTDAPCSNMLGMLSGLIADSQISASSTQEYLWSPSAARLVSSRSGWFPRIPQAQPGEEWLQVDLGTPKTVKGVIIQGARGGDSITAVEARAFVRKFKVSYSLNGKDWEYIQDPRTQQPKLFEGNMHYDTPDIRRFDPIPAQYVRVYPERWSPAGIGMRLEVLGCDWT

B1: soluble ectodomain of the HCMV Pentamer (strain Towne) (complex)
chain 1: RYGAEAISEPLDKAFHLLLNTYGRPIRFLRENTTQCTYNSSLRNSTVVRENAISFNFFQSYNQYYVFHMPRCLFAGPLAEQFLNQVDLTETLERYQQRLNTYALVSKDLASYRSFSQQLKAQDSLGEQPTTVPPPIDLSIPHVWMPPQTTPHGWTESHTTSGLHRPHFNQTCILFDGHDLLFSTVTPCLHQGFYLIDELRYVKITLTEDFFVVTVSIDDDTPMLLIFGHLPRVLFKAPYQRDNFILRQTEKHELLVLVKKDQLNRHSYLKDPDFLDAALDFNYLDLSALLRNSFHRYAVDVLKSGRCQMLDRRTVEMAFAYALALFAAARQEEAGAQVSVPRALDRQAALLQIQEFMITCLSQTPPRTTLLLYPTAVDLAKRALWTPNQITDITSLVRLVYILSKQNQQHLIPQWALRQIADFALKLHKTHLASFLSAFARQELYLMGSLVHSMLVHTTERREIFIVETGLCSLAELSHFTQLLAHPHHEYLSDLYTPCSSSGRRDHSLERLTRLFPDATVPTTVPAALSILSTMQPSTLETFPDLFCLPLGESFSALTVSEHVSYVVTNQYLIKGISYPVSTTVVGQSLIITQTDSQTKCELTRNMHTTHSITAALNISLENCAFCQSALLEYDDTQGVINIMYMHDSDDVLFALDPYNEVVVSSPRTHYLMLLKNGTVLEVTDVVVDATDSRL
chain 2: VAVSVAPTAAEKVPAECPELTRRCLLGEVFQGDKYESWLRPLVNVTRRDGPLSQLIRYRPVTPEAANSVLLDDAFLDTLALLYNNPDQLRALLTLLSSDTAPRWMTVMRGYSECGDGSPAVYTCVDDLCRGYDLTRLSYGRSIFTEHVLGFELVPPSLFNVVVAIRNEATRTNRAVRLPVSTAAAPEGITLFYGLYNAVKEFCLRHQLDPPLLRHLDKYYAGLPPELKQTRVNLPAHSRYGPQAVDAR
chain 3: RVPRVRAEECCEFINVNHPPERCYDFKMCNRFTVALRCPDGEVCYSPEKTAEIRGIVTTMTHSLTRQVVHNKLTSCNYNPLYLEADGRIRCGKVNDKAQYLLGAAGSVPYRWINLEYDKITRIVGLDQYLESVKKHKRLDVCRAKMGYMLQ
chain 4: SPWSTLTANQNPSPPWSKLTYSKPHDAATFYCPFLYPSPPRSPLQFSGFQQVSTGPECRNETLYLLYNREGQTLVERSSTWVKKVIWYLSGRNQTILQRMPQTASKPSDGNVQISVEDAKIFGAHMVPKQTKLLRFVVNDGTRYQMCVMKLESWAHVFRDYSVSFQVRLTFTEANNQTYTFCTHPNLIV
chain 5: QCQRETAEKNDYYRVPHYWDACSRALPDQTRYKYVEQLVDLTLNYHYDASHGLDNFDVLKRINVTEVSLLISDFRRQNRRGGTNKRTTFNAAGSLAPHARSLEFSVRLFAN

Key:
[1] = molecular target: 1-32–captured Pentamer (HCMV Pentamer bound by 1-32 IgG) (human cytomegalovirus (strain Towne) | …, UniProt P17176 24-718); assay: BLI; Pentamer captured by 1-32 IgG
[2] = molecular target: B1; assay: SPR
[3] = molecular target: B1; assay: SPR
[4] = molecular target: T1, monoFc-tagged NRP2 (human neuropilin 2 …); assay: BLI; 2 mM Ca2+
[5] = molecular target: T2, NRP2 a2b1b2 (human neuropilin 2 …); assay: BLI; 2 mM Ca2+

| Binder | Kd [2] [nM] | other results |
| --- | --- | --- |
| untagged NRP2 (receptor) RGQPDPPCGGRLNSKDAGYITSPGYPQDYPSHQNCEWIVYAPEPNQKIVLNFNPHFEIEKHDCKYDFIEIRDGDSESADLLGKHCGNIAPPTIISSGSMLYIKFTSDYARQGAGFSLRYEIFKTGSEDCSKNFTSPNGTIESPGFPEKYPHNLDCTFTILAKPKMEIILQFLIFDLEHDPLQVGEGDCKYDWLDIWDGIPHVGPLIGKYCGTKTPSELRSSTGILSLTFHTDMAVAKDGFSARYYLVHQEPLENFQCNVPLGMESGRIANEQISASSTYSDGRWTPQQSRLHGDDNGWTPNLDSNKEYLQVDLRFLTMLTAIATQGAISRETQNGYYVKSYKLEVSTNGEDWMVYRHGKNHKVFQANNDATEVVLNKLHAPLLTRFVRIRPQTWHSGIALRLELFGCRVTDAPCSNMLGMLSGLIADSQISASSTQEYLWSPSAARLVSSRSGWFPRIPQAQPGEEWLQVDLGTPKTVKGVIIQGARGGDSITAVEARAFVRKFKVSYSLNGKDWEYIQDPRTQQPKLFEGNMHYDTPDIRRFDPIPAQYVRVYPERWSPAGIGMRLEVLGCDWTDSKPTVETLGPTVKSEETTTPYPTEEEATECGENCSFEDDKDLQLPSGFNCNFDFLEEPCGWMYDHAKWLRTTWASSSSPNDRTFPDDRNFLRLQSDSQREGQYARLISPPVHLPRSPVCMEFQYQATGGRGVALQVVREASQESKLLWVIREDQGGEWKHGRIILPSYDMEYQIVFEGVIGKGRSGEIAIDDIRISTDVPLENCMEPISAFAGENFKVDIPEIHEREGYEDEIDDEYEVDWSNSSSATSGSGAPSTDKEKSWLYTLDPILITIIAMSSLGVLLGATCAGLLLYCTCSYSGLSSRSCTTLENYNFELYDGLKHKVKMNHQKCCSEA |  | koff [1]: 0.00177 s⁻¹ |
| Fab 2-25 (Fab, V domains shown) VH: QVQLVESGAEVKKPGASVKVSCKASGYTFTNYAIHWVRQAPGQRLEWMGWINAGRGNTKYSQKFQGRVTITRDTSASTAYMELSSLRSEDAAVYFCARDESTGDYYYYMDVWGKGTTVTVSS VL: SYELTQPPSVSVSPGQTASITCSGDRLDDKYASWYQQKAGQSPVLVIYQDNKRPSGIPERFSGSNSGNTATLTISGTQAMDEADYYCQAWDSDTYVFGTGTKVTVL | 1.08 |  |
| Fab 2-18 (Fab, V domains shown) VH: EVQLVQSGGGLVQPGGSLRVSCAASGFSFSDHDMDWVRQAPGKGFEWVGRSRNKDYSSTTEYAASVRGRFTISRHTSEDLLYLELNTVKTEDTAVYFCARGPHHSDRSGYYGGTFDIWGQGTMVTVSS VL: DIQMTQSPSSVSASVGDRVIITCRASQGISSWLAWYQQKPGRAPRLLIYDASTLESGVPSRFSGRGSGTEFTLTINSLQPEDFATYYCQQGNMFPLTFGGGTKVEIK | 0.0493 |  |
| Fab 1-103 (Fab, V domains shown) VH: QLQLQESGPGLVKPSETLSLTCSVSGDAISGSNYYWGWIRQPPGKGLQWIGSIYHTGSTFYNPSFSSRVTLSVDTSKNQFSLKLISVNAADTAVYYCARRIRGYSGTYDWGQGTLVTVSS VL: DIQLTQSPSFLSASVGDRVTITCRASQDISSYVAWYQQKPGNAPKLLISSASTLPSGVPSRFSGSRSGTDFTLTISSLQPEDFATYYCQQLNNFGPGTTVDIK | 3.11 |  |
| Fab 1-32 (Fab, V domains shown) VH: QVKLVESGGGVVQPGRSLRLSCAGSGFAFDNYAMHWVRQAPGKGLEWVAVISLEGRNKYYAGPAKGRFSISRDNSRNTVHLQMNSLRPEDTAVYFCARDMRYYYDSNGHYRNRYGMDVWGQGTTVIVSS VL: DIQMTQSPSSLSASVGDSVTITCQASQDINQFVSWYQQKPGKPPKLLIYDASNLESGVPSRFSGSGSGTHFTFTISSLQPDDIATYYCQQYENLFTFGPGTKVDIK | 2.82 | koff [3]: 0.000264 s⁻¹ |
| B1 |  | koff [4]: 0.000271 s⁻¹; koff [5]: 0.00104 s⁻¹ |
